These results are taken from patent US20220380801A1, “TRIPARTITE SYSTEMS FOR PROTEIN DIMERIZATION AND METHODS OF USE” (priority 2019, published 2022).

Where two headings read alike, the source gives them in different places.

Series [1] concerns GFP-PEST expression in monoclonal HEK293 cell lines. Nature of the series: Flow cytometry kinetics of GFP-PEST expression after simeprevir removal. It counts as cell-based, human. Conditions: 24h simeprevir induction, then removal.
Series [2] has as its system fluorogenic HCV protease FRET substrate. Nature of the series: HCV NS3/4A PR protease activity assay (fluorogenic peptide cleavage). Format: biochemical. Conditions: compared to WT. Here is the method:
To assess enzyme activity, cleavage of a fluorogenic HCV protease FRET substrate with an EDANS-DABCYL donor-quencher pair by purified HCV NS3/4A PR and the S139A mutant (RET 51, AnaSpec) was measured. When in close proximity (10-100 Å), as would be the case for the intact peptide, EDANS is excited at 340 nm, and the energy emitted from EDANS (at 490 nm) is quenched by DABCYL. Cleavage of the peptide by the HCV NS3/4A PR separates DABCYL from EDANS, allowing detection of fluorescence at 490 nm.
Serial dilutions of HCV NS3/4A PR and the active site mutant S139A in assay buffer (HEPES pH 7.8, 5 mM DTT, 100 mM NaCl, 10% glycerol, 0.01% CHAPS) were incubated with the fluorogenic substrate at room temperature. Fluorescence was measured after 3 hours using a PerkinElmer Envision plate reader (excitation 340 nm, emission 490 nm).

For series [3], the system named is luciferase reporter gene in HEK293 cells. Nature of the series: Transcriptional regulation assay (split transcription factor), luciferase reporter. It counts as cell-based, human. Conditions: for EC50: simeprevir dose-response. The text has this: The iDimerize regulated transcription system (Takara) was used to test the ability of PRSIM-based CIDs to regulate gene expression. […] The DBD and AD are separately fused to the two protein components of a CID such that, only in the presence of the small molecule inducer, the AD is brought into close proximity to the DBD, recruiting the transcription machinery to a promoter harbouring the DBD recognition sites. The iDimerize regulated transcription system (Takara) provides two vectors, pHet-Act1-2 and pZFHD1-Luciferase. The pHet-Act1-2 vector encodes two fusion proteins that represent a positive control: one is a fusion between FRB (T82L mutant; DmrC) and an activation domain (AD) from human p65 (SEQ ID NO: 42); the other is a fusion protein comprised of a DNA binding domain (ZFHD1) (SEQ ID NO: 43) fused to three tandem copies of FKBP12 (DmrA). These sequences are preceded by a CMV promoter and separated by an internal ribosome entry site (IRES). The ZFHD1 vector encodes luciferase preceded by an inducible promoter consisting of 12 copies of the recognition sequence of the ZFHD1 DBD upstream of a minimal IL-2 promoter. Binding of the DBD to its recognition sequence and recruitment of the transcriptional machinery by the AD initiates transcription of the luciferase reporter gene. The DNA sequence encoding HCV NS3/4A PR (S139A) was purchased as a DNA string from GeneArt and cloned into the pHet-Act1-2 vector as either an N-terminal fusion partner to the activation domain (SEQ ID NO: 44) (replacing FRB) or as a C-terminal fusion partner to the DNA binding domain (SEQ ID NO: 45) (replacing FKBP12) with flexible linkers (TGGGGSGGGGS (SEQ ID NO: 185) and SA, respectively) between the fusion partners. Subsequently, sequences encoding one copy of a panel of 12 PRSIM molecules (Table 2) were purchased as DNA strings from GeneArt and were cloned using Gibson assembly into the HCV NS3/4A PR (S139A)-containing pHetAct1-2 constructs described above, as a fusion partner to either the DBD (SEQ ID NOS: 46-56) or AD (SEQ ID NOS: 57-67), respectively. An equivalent construct was generated to replace the three copies of FKBP12 in pHet-Act1-2 with a single copy of FKBP12. The sequence of the constructs encoding both activation domain and DNA-binding domain fusion proteins was confirmed by Sanger sequencing of the entire coding region.
Sequences encoding the three HCV NS3/4A PR (S139A) mutants (Table 6) were purchased as DNA strings from GeneArt and were cloned using Gibson assembly into the pHetAct1-2 HCV NS3/4A PR (S139A)-PRSIM_23 (3 tandem copy) construct described above as a fusion partner to the AD (SEQ ID NOs: 211-216).
All transcriptional regulation assays were performed in adherent HEK293 cells cultured in 384-well plates. Cells enzymatically dissociated from a tissue culture flask were counted and plated at 7.5×10^3 cells/well in a 384-well plate. The plates were incubated overnight at 37° C. with 5% CO2 to allow the cells to adhere. On day 2, the cells were co-transfected with a pHet-Act1-2 plasmid (containing the FRB:FKBP12 control fusion proteins (Clontech) or the HCV NS3/4A PR (S139A):PRSIM fusion proteins) and a pZFHD1 plasmid (encoding either luciferase (Clontech) or NanoLuc-PEST (as described above)) using Lipofectamine LTX (ThermoFisher). On day 3, wells were treated with different concentrations of either A/C heterodimeriser (for the FRB:FKBP12 control), simeprevir or with vehicle control, and 24 hours later luminescence was quantified with an Envision plate reader immediately following addition of SteadyGlo luciferase substrate (Promega) or Nano-Glo Vivazine luciferase substrate (Promega). Alternatively, reverse transfections were carried out on Day 1, addition of dimeriser on Day 2 and luminescence quantified 24 hours later on Day 3.
Luminescence readings were converted into fold-change by dividing the signal in the presence of simeprevir by that in the absence of simeprevir.

Series [4] relates to split Nanoluciferase (LgBiT/SmBiT) reconstitution in HEK293 cells. Nature of the series: Split NanoLuc reconstitution assay (NanoBiT). Format: cell-based, human. Conditions: 100 nM simeprevir over no simeprevir; LgBiT fused to the C-terminus of the PRSIM binding module. The protocol:
The ability of the PRSIM binding molecules to promote dimerization of two proteins to which they are fused was assessed with the NanoBiT system (Promega) that measures the reconstitution of a split Nanoluciferase (NanoLuc) and the resultant luminescence upon supply of a live cell imaging Nano-Glo NanoLuc substrate (FIG. 8). In the NanoBiT system, one interaction partner is fused via a flexible linker to an 18 kDa fragment of NanoLuc termed LgBiT (for “large bit”) (SEQ ID NO: 16) and the other is fused via an equivalent linker to a 1.3 kDa peptide SmBiT (“small bit”) (SEQ ID NO: 17). LgBit and SmBiT have a low affinity (190 μM) for each other in the absence of interacting partners and will not reconstitute to form an active luciferase enzyme. Once fused to the interacting proteins of a CID and supplied with inducer, they will reconstitute, and luminescence can be measured. The NanoBiT system supplies two sets of control proteins fused to LgBiT and SmBiT: a set of constitutively interacting proteins PRKAR2A:PRKACA; and the FRB:FKBP12 pair whose dimerization can be induced with rapamycin.
To establish the optimal orientation of the HCV NS3/4A PR (S139A) and PRSIM components, constructs whereby HCV NS3/4A PR (S139A) was fused at either the N- or C-terminus to SmBiT (SEQ ID NOs: 18 and 19, respectively) and a parallel set of constructs for each PRSIM binding module fused to either the N- or C-terminus of LgBiT (SEQ ID NOS: 20-30 and 31-41, respectively). The NanoBiT kit (Promega) supplies a set of vectors enabling these constructs to be generated. DNA strings encoding HCV NS3/4A PR (S139A) and the PRSIM molecules were purchased from GeneArt and amplified via PCR with primers with extensions containing restriction sites compatible with the NanoBiT vectors and were cloned via Gibson assembly. All constructs were verified via Sanger sequencing of the entire coding sequence.
All NanoBiT screens were performed in adherent HEK293 cells cultured in 96-well plates. Cells enzymatically dissociated from a tissue culture flask were counted and plated at 2×10^4 cells/well in a white, opaque-bottomed 96-well plate (Costar 3917). The plates were incubated overnight at 37° C. with 5% CO2 to allow the cells to adhere. On day 2, plasmids were co-transfected with Lipofectamine LTX (ThermoFisher) at a final concentration of 100 ng/well (50 ng/plasmid, one encoding a SmBiT fusion, the other a LgBiT fusion). On day 3, wells were treated with 100 nM of the appropriate small molecule inducer (rapamycin (FRB:FKBP12) or simeprevir (HCV NS3/4A PR:PRSIM)) or vehicle control, and luminescence was quantified with an Envision plate reader immediately following addition of Nano-Glo Live Cell Substrate (Promega).

B1: “WT” S139A: HCV NS3/4A protease with active site mutation S139A, SEQ ID NO: 2 (protein)
chain: MKKKGSVVIVGRINLSGDTAYAQQTRGEEGCQETSQTGRDKNQVEGEVQIVSTATQTFLATSINGVLWTVYHGAGTRTIASPKGPVTQMYTNVDKDLVGWQAPQGSRSLTPCTCGSSDLYLVTRHADVIPVRRRGDSRGSLLSPRPISYLKGSAGGPLLCPAGHAVGIFRAAVSTRGVAKAVDFIPVESLETTMRSP
modifications: HCV NS3/4A PR (S139A)
Turning to B1, the “GFP fluorescence after simeprevir removal” value in series [1] was “retained high GFP-fluorescence over 24 h”. Further, the enzymatic activity result in series [2] is “No enzymatic activity could be detected at most concentrations tested”. The Max fold change in series [3] (protease variant-AD and DBD-PRSIM_23 (three tandem copies)) was determined as 6973.

B2: PRSIM_01: scFv PRSIM binding molecule, SEQ ID NO: 10 (protein)
scFv: QVQLVQSGAEVKKPGSSVKVSCKASGGTFSSYAISWVRQAPGQGLEWMGGIIPIFGTANYAQKFQGRVTITADESTSTAYMELSSLRSEDTAVYYCARGQGYITVFDYWGQGTLVTVSSGGGGSGGGGSGGGGSAQSVLTQPPSASGTPGQRVTISCSGSSSNIGSNTVNWYQQLPGTAPKLLIYSNNQRPSGVPDRFSGSKSGTSASLAISGLQSEDEADYYCAAWDHHWEQVVFGGGTKLTVL
modifications: PRSIM_01
For B2, the fold-change in luminescence in series [4] is given as 16 fold. Moreover, the Max fold change in series [3] (PRSIM fused to AD, one copy) amounted to 5.83; in series [3] (PRSIM fused to DBD, one copy) it was 86.76. Further, the EC50 result in series [3] (PRSIM fused to AD, one copy) is “Ambiguous”; in series [3] (PRSIM fused to DBD, one copy, read-out: EC50), 6.99 nM.
